Columns and labels:
Assay in all cases: cell-based or functional assay
[1] = target: protease derived from Acremonium chrysogenum ATCC 48272 (Acremonium chrysogenum ATCC 48272)
[2] = target: protease derived from Paecilomyces lilacinus CBS 102449 (Paecilomyces lilacinus CBS 102449)
[3] = target: protease derived from Bacillus sp. NCIMB 40484 (Bacillus sp. NCIMB 40484)
[4] = target: SAVINASE, subtilisin derived from Bacillus clausii (previously Bacillus lentus NCIB 10309) (Bacillus clausii (previously Bacillus lentus NCIB 10309)) (UniProt P29600)
[5] = target: protease derived from Fusarium oxysporum IFO 4471 (Fusarium oxysporum IFO 4471)
[6] = target: protease derived from Bacillus alcalophilus NCIMB 10438 (Bacillus alcalophilus NCIMB 10438)
[7] = target: Sub.Novo(Y217L), mutant of subtilisin from Bacillus amyloliquefaciens (Bacillus amyloliquefaciens) (UniProt P00782)
[8] = target: protease derived from Aspergillus sp. CBS 102448
[9] = target: Sub.Novo, subtilisin from Bacillus amyloliquefaciens (Bacillus amyloliquefaciens) (UniProt P00782)

## Streptomyces Subtilisin Inhibitor (SSI) (from UniProt P01006 32-144)
[1]
  Residual activity (%): 0.1%
[2]
  Residual activity (%): 0.1%
[3]
  Residual activity (%): 4.3%
[4]
  Residual activity (%): 0%
[5]
  Residual activity (%): 0.1%
[6]
  Residual activity (%): 0%
[7]
  Residual activity (%): 0%
[8]
  Residual activity (%): 0.1%
[9]
  Residual activity (%): 0.1%
